Source: patent US20030096288A1 (Human Genome Sciences, published 2003)

Target: T1, RAIDD (construct or tag not stated for the experiment) (human, UniProt P78560 1-199)
T1 construct: a tag may have been present; also called RAIDD expression construct
Assay: in vitro binding to GST fusion protein on glutathione beads
Protocol: In Vitro Binding Assay. […] The tagged proteins were expressed, purified, and immobilized into Ni²⁺ beads according to standard methodology. The GST-Fas and TNFR-1 fusion proteins were prepared as described previously (Chinnaiyan, A. M. et al., Cell 81:505-12 (1995)). ³⁵S-labeled proteins were obtained by in vitro transcription/translation using the TNT T7-coupled reticulocyte lysate system (Promega).
Beads were washed, boiled in SDS sample buffer, eluted proteins resolved by SDS-PAGE and visualized following autoradiography.

T1 sequence (P78560 whole entry): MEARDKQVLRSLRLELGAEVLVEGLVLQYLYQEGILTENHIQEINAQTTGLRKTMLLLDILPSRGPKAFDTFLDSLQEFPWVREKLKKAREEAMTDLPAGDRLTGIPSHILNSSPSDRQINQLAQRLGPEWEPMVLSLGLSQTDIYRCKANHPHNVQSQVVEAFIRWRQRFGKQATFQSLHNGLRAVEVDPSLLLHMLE

B1: GST-Fas fusion protein (receptor, UniProt P25445 191-335, looked up)
chain: KRKEVQKTCRKHRKENQGSHESPTLNPETVAINLSDVDLSKYITTIAGVMTLSQVKGFVRKNGVNEAKIDEIKNDNVQDTAEQKVQLLRNWHQLHGKKEAYDTLIKDLKKANLCTLAEKIQTIILKDITSDSENSNFRNEIQSLV
notes: not shown: GST
B1: no binding.
